# Laboratory results: the supplement of paper PMC10567573
# B1: CDC25A (parent)
# chain: TVAGKHQDLKYISPEIMASVLNGK
# B2: ZNF207 (parent)
# chain: CHICHKKLYTGPGLAIHCMQVHKE
# Variants of: B1
# Test: protein stability index of a GFP-peptide fusion (GPS, HEK-293T) (PSI 1-6); higher = more stable
# Settings: c terminus: a fixed tail appended
# 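Note: lentivirally expressed fusions sorted by FACS into six bins by GFP to DsRed ratio, PSI derived from sequencing read proportions per bin multiplied by bin number.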
row,Variant,protein stability index
1,L21T,3.84
2,L21Y,3.18
3,L21V,3.54
4,L21S,3.8
5,L21W,3.17
6,K24C,2.42
7,K24H,2.44
8,K24E,3.73
9,K24R,3.06
10,K24N,3.21
11,K24I,2.01
12,K24Y,2.01
13,K24P,3.26
14,K24A,2.67
15,K24T,2.69
16,K24D,3.61
17,K24F,1.89
18,K24W,1.93
19,K24Q,3.4
20,K24V,2.09
21,K24G,2.87

row,Variant,protein stability index
1,K24L,2.01
2,K24M,2.36
3,K24S,2.94
4,N22C,2.53
5,N22S,3.27
6,N22L,2.56
7,N22T,2.88
8,N22P,3.4
9,N22E,3.92
10,N22F,1.93
11,N22W,1.95
12,N22Y,2.41
13,N22Q,3.37
14,N22G,2.84
15,N22D,3.54
16,N22I,2.77
17,N22H,2.96
18,N22R,2.71
19,N22A,2.92
20,N22K,2.94
21,N22M,2.66

row,Variant,protein stability index
1,N22V,2.55
2,G23C,2.63
3,G23E,3.69
4,G23H,2.9
5,G23T,3.25
6,G23M,2.46
7,G23L,2.63
8,G23F,2.37
9,G23N,3.9
10,G23Y,2.35
11,G23R,3.37
12,G23Q,3.4
13,G23A,2.96
14,G23K,3.36
15,G23W,2.33
16,G23V,2.61
17,G23P,2.56
18,G23D,3.57
19,G23S,3.01
20,G23I,2.48

# Variants of: B2
# Test: as above
# Settings: c terminus: a fixed tail appended
row,Variant,protein stability index
1,K6E,4.41
2,K6I,2.63
3,K6N,3.25
4,K6L,2.36
5,K6M,3.35
6,K6C,3.45
7,K6Q,4.09
8,K6T,2.15
9,K6Y,2.72
10,K6W,2.17
11,K6A,4.37
12,K6H,3.51
13,K6V,3.41
14,K6G,3.03
15,K6P,2.12
16,K6R,3.97
17,K6D,3.28
18,K6F,1.84
19,K6S,3.54
20,L14T,3.6
21,L14S,3.22
22,L14H,3.69
23,L14N,4.65
24,L14E,4.44
25,L14P,3.9

row,Variant,protein stability index
1,L14A,3.96
2,L14K,3.1
3,L14M,3.45
4,L14F,2.9
5,L14R,2.79
6,L14G,3.85
7,L14I,3.3
8,L14Q,3.78
9,L14Y,2.94
10,L14D,4.56
11,L14W,2.85
12,L14C,3.34
13,L14V,3
14,C4N,1.9
15,C4R,1.94
16,C4Y,2.04
17,C4H,1.6
18,C4P,2.5
19,C4I,3.16
20,C4L,1.39
21,C4D,1.6
22,C4Q,2.01
23,C4E,1.07
24,C4S,1.38
25,C4A,1.36

row,Variant,protein stability index
1,C4M,2.12
2,C4K,1.15
3,C4T,1.5
4,C4W,1.88
5,C4F,1.93
6,C4G,1.7
7,T10P,3.68
8,T10R,2.52
9,T10G,3.06
10,T10N,3.58
11,T10I,2.86
12,T10D,4.59
13,T10H,2.68
14,T10A,3.47
15,T10M,2.55
16,T10F,2.4
17,T10Y,2.6
18,T10K,2.65
19,T10E,3.83
20,T10L,2.49
21,T10S,3.31
22,T10C,2.92
23,T10W,2.56
24,T10V,3.5
25,T10Q,3.8

row,Variant,protein stability index
1,C1G,2.07
2,C1A,2.02
3,C1K,2.16
4,C1L,1.94
5,C1I,1.52
6,C1E,2.76
7,C1M,2.03
8,C1Y,2.84
9,C1S,2.58
10,C1R,3
11,C1P,2.69
12,C1T,1.94
13,C1H,1.83
14,C1Q,1.8
15,C1D,2.78
16,C1N,2.24
17,L8R,1.37
18,L8T,3.02
19,L8Y,2.33
20,L8A,2.33
21,L8P,3.1
22,L8H,3.14
23,L8C,3.16
24,L8D,3.37
25,L8V,4.12

row,Variant,protein stability index
1,L8M,4.63
2,L8G,3.61
3,L8W,2.66
4,L8K,2.42
5,L8N,2.97
6,L8S,2.57
7,L8Q,2.93
8,L8F,2.44
9,L8I,3.67
10,L8E,3.96
11,G13E,4.3
12,G13F,2.11
13,G13T,3.37
14,G13R,2.41
15,G13Y,2.12
16,G13D,4.82
17,G13P,2.43
18,G13S,3.83
19,G13M,3.64
20,G13V,2.54
21,G13W,2.07
22,G13K,3.15
23,G13I,2.3
24,G13N,3.77
25,G13H,4.02

row,Variant,protein stability index
1,G13C,3.65
2,G13Q,4.07
3,G13A,4.96
4,G13L,2.9
5,G11S,3.48
6,G11A,2.67
7,G11I,1.58
8,G11Y,1.56
9,G11M,2.05
10,G11E,4.53
11,G11C,2.31
12,G11F,2.63
13,G11W,1.36
14,G11N,3.59
15,G11T,2.48
16,G11V,2.32
17,G11P,3.94
18,G11R,3.53
19,G11H,2.68
20,G11K,3.34
21,G11Q,3.37
22,G11D,3.98
23,G11L,2.63
24,I3R,2.52
25,I3Y,3.43

row,Variant,protein stability index
1,I3G,2.48
2,I3S,2.58
3,I3F,2.34
4,I3C,2.54
5,I3M,2.73
6,I3A,2.17
7,I3Q,2.44
8,I3E,2.37
9,I3D,2.24
10,I3W,2.73
11,I3H,3.67
12,I3N,2.19
13,I3K,3.1
14,I3P,1.99
15,I3V,2.51
16,I3T,3.03
17,I3L,3.09
18,K7Q,4.11
19,K7S,3.66
20,K7E,4.14
21,K7C,3.63
22,K7H,3.25
23,K7N,4.21
24,K7G,3.27
25,K7D,4.16

row,Variant,protein stability index
1,K7T,3.98
2,K7Y,4.2
3,K7R,3.48
4,K7V,4.09
5,K7F,4.02
6,K7W,3.27
7,K7M,3.86
8,K7P,2.55
9,K7A,3.92
10,K7I,3.73
11,K7L,4.3
12,A15E,3.55
13,A15M,3.35
14,A15L,2.66
15,A15G,4.44
16,A15F,2.91
17,A15C,4.64
18,A15H,2.99
19,A15D,4.37
20,A15K,3.38
21,A15I,2.79
22,Y9I,2.72
23,Y9K,3.29
24,Y9G,3.76
25,Y9M,4.14

row,Variant,protein stability index
1,Y9E,4.6
2,Y9S,4.28
3,Y9L,3.97
4,Y9R,4.11
5,Y9W,2.34
6,Y9A,4.31
7,Y9P,3.64
8,Y9T,3.27
9,Y9V,3.19
10,Y9Q,3.93
11,Y9N,3.83
12,Y9H,3.62
13,Y9F,3.16
14,Y9D,4.9
15,Y9C,3.39
16,P12E,4.48
17,P12T,3.18
18,P12N,4.09
19,P12C,3.09
20,P12Y,3.73
21,P12L,3.46
22,P12Q,4.11
23,P12H,5.06
24,P12V,2.05
25,P12I,3.03

row,Variant,protein stability index
1,P12R,3.88
2,P12F,2.41
3,P12W,3.49
4,P12A,3.84
5,P12D,4.51
6,P12K,3.5
7,P12G,3.09
8,P12S,3.86
9,P12M,3.24
10,H2W,2.61
11,H2N,3.65
12,H2K,2.91
13,H2T,2.87
14,H2A,2.71
15,H2L,2.78
16,H2P,2.9
17,H2F,2.76
18,H2R,2.59
19,H2I,2.46
20,H2C,2.45
21,H2V,2.44
22,H2D,4.28
23,H2G,3.31
24,H2Y,2.74
25,H2M,2.49

row,Variant,protein stability index
1,H2S,2.73
2,H2E,3.07
3,H2Q,3.4
4,H5K,2.55
5,H5C,2.4
6,H5R,2.96
7,H5I,2.03
8,H5P,2.39
9,H5D,3.49
10,H5N,3.18
11,H5L,3.01
12,H5T,2.48
13,H5E,3.63
14,H5F,3.26
15,H5Y,2.97
16,H5V,1.63
17,H5Q,2.79
18,H5S,2.83
19,H5W,2.74
20,H5A,3.83
21,H5M,3.33
22,H5G,3.35
